Each block holds one substance with its values, some of them ahead of it.
How the values were obtained:
[1] = molecular target: T1, CD96 (UniProt P40200); assay: flow cytometry, CD96-expressing cells
T1 sequence (looked up): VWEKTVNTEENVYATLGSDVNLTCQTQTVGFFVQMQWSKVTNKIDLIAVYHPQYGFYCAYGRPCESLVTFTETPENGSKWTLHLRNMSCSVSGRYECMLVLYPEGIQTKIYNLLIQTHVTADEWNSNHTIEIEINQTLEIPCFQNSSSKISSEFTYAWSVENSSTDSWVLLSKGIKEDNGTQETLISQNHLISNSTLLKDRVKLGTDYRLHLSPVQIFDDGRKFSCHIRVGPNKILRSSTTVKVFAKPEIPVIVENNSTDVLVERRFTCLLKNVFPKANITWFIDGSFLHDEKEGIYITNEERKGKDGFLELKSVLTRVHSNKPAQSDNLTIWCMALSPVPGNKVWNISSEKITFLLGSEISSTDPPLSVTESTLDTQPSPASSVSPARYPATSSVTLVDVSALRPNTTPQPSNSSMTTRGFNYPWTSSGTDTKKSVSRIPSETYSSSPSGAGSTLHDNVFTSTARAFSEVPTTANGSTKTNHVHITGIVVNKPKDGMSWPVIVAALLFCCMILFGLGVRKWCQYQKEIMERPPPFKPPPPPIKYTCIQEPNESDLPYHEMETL

[2] = molecular target: T2, CD226 (human) (UniProt Q15762); assay: flow cytometry, CD226-expressing cells
T2 sequence: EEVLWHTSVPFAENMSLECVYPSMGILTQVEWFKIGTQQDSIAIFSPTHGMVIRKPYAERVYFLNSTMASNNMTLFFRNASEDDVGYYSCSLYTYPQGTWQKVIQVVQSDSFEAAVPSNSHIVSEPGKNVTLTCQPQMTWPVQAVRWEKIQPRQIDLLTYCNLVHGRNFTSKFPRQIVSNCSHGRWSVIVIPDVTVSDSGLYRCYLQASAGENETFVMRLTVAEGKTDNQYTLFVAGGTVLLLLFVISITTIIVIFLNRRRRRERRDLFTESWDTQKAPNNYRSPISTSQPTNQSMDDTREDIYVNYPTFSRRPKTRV

[3] = molecular target: PD-1 on Jurkat/PD-1 cells; assay: flow cytometry on Jurkat/PD-1 cells, 50 nM
[4] = molecular target: PD-1 on Jurkat/PD-1 cells; assay: flow cytometry, 50 nM; ratio to wild type PD-L1 IgV-Fc
[5] = molecular target: PD-1 (Homo sapiens (Human)) (UniProt Q15116); assay: flow cytometry, Jurkat/PD-1 cells
[6] = molecular target: PD-1-Fc; assay: Fortebio (BLI), PD-1-Fc
[7] = molecular target: T1, CD96; assay: flow cytometry, cells
[8] = molecular target: T3, TIGIT (human) (UniProt Q495A1); assay: flow cytometry, transfected cells
T3 sequence: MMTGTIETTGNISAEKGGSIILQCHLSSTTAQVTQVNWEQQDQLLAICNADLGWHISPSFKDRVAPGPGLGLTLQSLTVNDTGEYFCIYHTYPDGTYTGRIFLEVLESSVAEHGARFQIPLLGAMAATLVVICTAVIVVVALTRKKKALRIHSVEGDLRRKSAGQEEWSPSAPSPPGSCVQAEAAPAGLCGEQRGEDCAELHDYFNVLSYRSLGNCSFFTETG

[9] = molecular target: T1, CD96; assay: flow cytometry on CD96-expressing cells
[10] = molecular target: human B7-H6 (human) (UniProt Q68D85); assay: flow cytometry, transfected cells
[11] = molecular target: T2, CD226 (human); assay: flow cytometry, transfected cells
[12] = molecular target: T3, TIGIT (human); assay: flow cytometry, TIGIT-expressing cells
[13] = molecular target: human ICOS as used for the 'ICOS OD' read-out of Table 14 (human); assay: binding read as OD; format not described
[14] = molecular target: human CD28, full-length, expressed on transfected Expi293 cells (human) (UniProt P10747); assay: flow cytometry on CD28-expressing Expi293 cells

Chain of PD-1 (Homo sapiens (Human)) (Q15116 21-288 limits assumed, form in doubt): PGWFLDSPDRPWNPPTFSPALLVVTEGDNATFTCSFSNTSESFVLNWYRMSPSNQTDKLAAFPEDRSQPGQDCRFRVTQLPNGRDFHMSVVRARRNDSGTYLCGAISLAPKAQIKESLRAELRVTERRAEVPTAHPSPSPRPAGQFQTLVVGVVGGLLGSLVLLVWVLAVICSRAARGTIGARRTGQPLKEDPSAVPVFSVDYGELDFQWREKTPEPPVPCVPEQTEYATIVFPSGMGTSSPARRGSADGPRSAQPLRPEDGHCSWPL
Chain of human B7-H6 (human) (Q68D85 25-454): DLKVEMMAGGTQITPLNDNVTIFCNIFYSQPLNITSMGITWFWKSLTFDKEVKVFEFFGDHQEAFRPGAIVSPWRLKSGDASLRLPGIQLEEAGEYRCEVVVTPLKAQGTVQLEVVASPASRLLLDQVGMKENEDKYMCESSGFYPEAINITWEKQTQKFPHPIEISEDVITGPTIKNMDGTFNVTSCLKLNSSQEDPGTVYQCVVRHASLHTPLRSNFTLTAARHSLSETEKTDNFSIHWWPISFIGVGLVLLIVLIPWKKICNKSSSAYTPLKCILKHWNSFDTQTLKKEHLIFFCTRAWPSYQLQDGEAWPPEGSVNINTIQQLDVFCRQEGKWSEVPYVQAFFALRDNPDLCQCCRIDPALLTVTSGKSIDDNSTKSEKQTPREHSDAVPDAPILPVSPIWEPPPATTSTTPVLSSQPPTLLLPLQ

MFI at 100 nM [1]: 22800 MFI
MFI at 100 nM [2]: 18300 MFI
Substance: CD155 variant IgV-Fc P18S, L79P, L104M, T107M (from UniProt P15151 24-139) (Fc fusion)

MFI at 50 nM [3]: 69500
Fold increase over wildtype PD-L1 IgV-Fc [4]: 13.3 fold
Substance: PD-L1 IgV I20L, E27G, D43G, N45D, V58A, N78I Fc fusion

MFI at 50 nM [5]: 49700
Fortebio binding to PD-1-Fc Response Units (Response Units) [6]: 1.2
Substance: variant PD-L2 IgV-Fc H15Q, Q82R, V89D (Fc fusion)

MFI at 50 nM [3]: 80200
Fold increase over wildtype PD-L1 IgV-Fc [4]: 15.3 fold
Substance: PD-L1 IgV I20L, A33D, D43G, N45D, V58A, N78I Fc fusion

MFI at 50 nM [3]: 18500
Fold increase over wildtype PD-L1 IgV-Fc [4]: 3.5 fold
Substance: Full length PD-L1 Fc (from UniProt Q9NZQ7 19-239) (Fc fusion)

MFI at 50 nM [5]: 53700
Fortebio binding to PD-1-Fc Response Units (Response Units) [6]: 1.6
Substance: variant PD-L2 IgV-Fc I13V, H15Q, T47A, R76G, V89D (Fc fusion)

MFI [7]: 2680
MFI [8]: 3220
Substance: CD155 P18S, F91P IgV-Fc (from UniProt P15151 24-139) (Fc fusion)

MFI at 11.1 nM [1]: 1500 MFI
MFI at 11.1 nM [2]: 835 MFI
Substance: CD155 variant IgV-Fc V9L, P18T, Q62R, L79P, F91S, L104M, G111R (from UniProt P15151 24-139) (Fc fusion)

MFI at 100 nM [9]: 1100 MFI
Substance: CD112 ECD-Fc (from UniProt Q92692 32-360) (Fc fusion)

MFI at 50 nM [5]: 47600
Fortebio binding to PD-1-Fc Response Units (Response Units) [6]: 1.25
Substance: variant PD-L2 IgV-Fc I13V, H15Q, T37A, E44D, S48C, S67L, Q82R, V89D (Fc fusion)

MFI at 50 nM [5]: 830
Substance: variant PD-L2 IgV-Fc H15Q, C23S, I86T (Fc fusion)

MFI [10]: 129000
Substance: Domain 1: CD86 WT / Domain 2: Nkp30 WT / Fc (Fc fusion)

MFI at 100 nM [1]: 3700 MFI
Substance: CD155 variant IgV-Fc P18H, S42G, T45I, S52T, G53R, S54H, V57L, H59E, T61S, S65D, E68G, L104N (Fc fusion)

MFI [7]: 2510
MFI [8]: 2940
MFI [11]: 3590
Substance: CD155 P18T, F91S, R94H IgV-Fc (from UniProt P15151 24-139) (Fc fusion)

MFI at 50 nM [5]: 61000
Substance: variant PD-L2 IgV-Fc I13V, H15Q, E44V, T47A, Q82R, V89D (Fc fusion)

MFI at 50 nM [5]: 614
Substance: variant PD-L2 IgV-Fc E44D, V89D, W91R (Fc fusion)

MFI at 100 nM [12]: 3210 MFI
MFI at 100 nM [1]: 2890 MFI
MFI at 100 nM [2]: 8320 MFI
Substance: CD155 variant IgV-Fc L79P, L104M (from UniProt P15151 24-139) (Fc fusion)

MFI at 50 nM [5]: 32100
Fortebio binding to PD-1-Fc Response Units (Response Units) [6]: 0.4
Substance: variant PD-L2 IgV-Fc H15Q, N24S, T47A, Q72H, R76G, V89D (Fc fusion)

MFI at 11.1 nM [2]: 1190 MFI
Substance: CD155 variant IgV-Fc P18S, A47G, L79P, F91S, L104M, T107A, R113W (from UniProt P15151 24-139) (Fc fusion)

MFI at 100 nM [1]: 2570 MFI
Substance: CD155 variant IgV-Fc P18S, S65W, S67A, M90V, V95A, L104Q, G111R (from UniProt P15151 24-139) (Fc fusion)

ICOS OD [13]: 0.85 OD
ICOS OD parental ratio (ratio to WT ICOSL ECD-Fc) [13]: 0.99
MFI [14]: 68 MFI
MFI parental ratio (ratio to WT ICOSL ECD-Fc) [14]: 3.78
Substance: ICOSL variant N52S/Y152H ECD-Fc fusion

MFI at 50 nM [3]: 29800
Fold increase over wildtype PD-L1 IgV-Fc [4]: 5.7 fold
Substance: PD-L1 IgV I20L, E27G, N45T, V50A Fc fusion

— US20200040059A1
